Laboratory results from paper PMC12355088, “Structural analysis of TRIM family PRYSPRY domains and its implications for E3-ligand design” (Journal of Structural Biology: X, 2025).

Target: the molecule itself
Experiment: SEC; Superdex-75 column, elution compared with marker proteins (BSA, ovalbumin, carbonic anhydrase, ribonuclease A)

B1: TRIM36 PRYSPRY domain (domain or fragment, human)
chain: TPPAPVFSFLFDEKCGYNNEHLLLNLKRDRVESRAGFNLLLAAERIQVGYYTSLDYIIGDTGITKGKHFWAFRVEPYSYLVKVGVASSDKLQEWLRSPRDAVSPRYEQDSGHDSGSEDACFDSSQPFTLVTIGMQKFFIPKSPTSSNEPENRVLPMPTSIGIFLDCDKGKVDFYDMDQMKCLYERQVDCSHTLYPAFALMGSGGIQLEEPITAKYLEYQEDM
notes: PRYSPRY domain of human TRIM36, with an additional C-terminal helix; theoretical MW of the dimer 52.4 kDa; Cloned into pNIC-CTH0; also called TRIM36 domain
- stoichiometry N: 2
